# Test results as given in the supplement of paper PMC7877785.
# ± gives the uncertainty stated by the source.
# Test: self-splicing fitness, log relative to wild type (ln ratio); higher = more splicing; Tetrahymena group I intron in knt gene, E. coli kanamycin selection, DiMSum; sequences stand for … in CUCUCU…GGAGGGAAAAGUUAUCAGGCAUGCACCUGGUAGCUAGUCUUUAAACCAAUAGAUUGCAUCGGUUUAAAAGGCAAGACCGUCAAAUUGCGGGAAAGGGGUCAACAGCCGUUCAGUACCAAGUCUCAGGGGAAACUUUGAGAUGGCCUUGCAAAGGGUAUGGUAAUAAGCUGACGGACAUGGUCCUAACCACGCAGCCAAGUCCUAAGUCAACAGAUCUUCUGUUGAUAUGGAUGCAGUUCACAGACUAAAUGUCGGUCGGGGAAGAUGUAUUCUUCUCAUAAGAUAUAGUCGGACCUCUCCUUAAUGGGAGCUAGCGGAUGAAGUGAUGCAACACUGGAGCCGCUGGGAACUAAUUUGUAUGCGAAAGUAUAUUGAUUAGUUUUGGAGUACUCGUGGUCG
# In short: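 A randomised library covering all eight P1ex-region intron nucleotides was built with the intron in the knt kanamycin-resistance gene on pET-22b(+) and held in E. coli BL21(DE3). Cells were grown overnight at 37°C or 30°C on LB agar, with or without 25 μg/mL kanamycin, plus 100 μg/mL carbenicillin, 50 μM IPTG and 0.2% rhamnose, and pooled colonies were amplicon-sequenced on an Illumina HiSeq 2500. DiMSum fitness is the error-weighted combination of wild-type-normalised replicate fold changes, kanamycin versus none.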
Sequence,self-splicing fitness (ln) (30 °C),self-splicing fitness (ln) (37 °C)
AAUGAGCAAUAUUACGGGGC,-2.82 ± 0.2,-1.93 ± 0.24
GUAUAGCAAUAUUACGGAAG,,-1.92 ± 0.27
CGGUAGCAAUAUUACGGGAG,-3.22 ± 0.17,-1.71 ± 0.14
GAUUAGCAAUAUUACGAUAG,-2.37 ± 0.13,-1.1 ± 0.16
GAUUAGCAAUAUUACGGAUU,-3.17 ± 0.21,-2.13 ± 0.23
AUUAAGCAAUAUUACGUAAG,-0.562 ± 0.12,-0.864 ± 0.19
ACCAAGCAAUAUUACGCACC,-0.532 ± 0.078,-0.199 ± 0.11
ACAGAGCAAUAUUACGAGUU,-3.3 ± 0.2,-1.8 ± 0.14
GCAGAGCAAUAUUACGAUAU,-3.38 ± 0.29,-1.72 ± 0.2
CGUAAGCAAUAUUACGGCCU,-3.28 ± 0.26,-1.54 ± 0.22
GACUAGCAAUAUUACGUACG,-0.653 ± 0.066,-0.585 ± 0.098
UCCGAGCAAUAUUACGCUAG,-3.12 ± 0.31,-2.75 ± 0.34
AAGGAGCAAUAUUACGUCUA,-0.839 ± 0.24,-0.933 ± 0.27
GGUGAGCAAUAUUACGAACC,,-2.72 ± 0.22
AGGUAGCAAUAUUACGAGAU,-3.178 ± 0.023,-1.91 ± 0.036
AUGUAGCAAUAUUACGUUGA,-3.43 ± 0.29,-1.35 ± 0.22
CGAAAGCAAUAUUACGUAGC,-3.4 ± 0.29,-2.39 ± 0.27
CUGCAGCAAUAUUACGAUCU,-4.3 ± 0.43,-2.46 ± 0.27
CUAUAGCAAUAUUACGUUGC,-2.61 ± 0.32,-2.37 ± 0.32
ACCAAGCAAUAUUACGUUCA,-1.65 ± 0.11,-1.18 ± 0.1
UAGAAGCAAUAUUACGAGAA,-1.7 ± 0.44,-1.55 ± 0.35
GUCUAGCAAUAUUACGAUGC,0.169 ± 0.14,-0.841 ± 0.13
GCUGAGCAAUAUUACGACAC,-1.67 ± 0.14,-1.1 ± 0.18
GACCAGCAAUAUUACGUGGC,-4.25 ± 0.21,-2.88 ± 0.16
UUAAAGCAAUAUUACGCCGU,-0.966 ± 0.18,-0.394 ± 0.25

Sequence,self-splicing fitness (ln) (30 °C),self-splicing fitness (ln) (37 °C)
GGCGAGCAAUAUUACGAGUC,-1.61 ± 0.36,
GGUGAGCAAUAUUACGUCAC,-3.1 ± 0.34,
GAAUAGCAAUAUUACGGCGG,-2.65 ± 0.18,-0.799 ± 0.13
GGUAAGCAAUAUUACGCAGC,-0.901 ± 0.24,-1.19 ± 0.23
AGAAAGCAAUAUUACGCGUA,-1.71 ± 0.1,-0.388 ± 0.082
UUGAAGCAAUAUUACGAGAA,-1.9 ± 0.17,-1.7 ± 0.18
UUCCAGCAAUAUUACGAAAC,,-2.29 ± 0.35
CCGCAGCAAUAUUACGUCUU,-3.69 ± 0.37,-3.07 ± 0.24
GAAUAGCAAUAUUACGUACA,-1.7 ± 0.14,-0.774 ± 0.2
GUUAAGCAAUAUUACGGAUU,-2.21 ± 0.12,-0.713 ± 0.14
CCGCAGCAAUAUUACGGCGC,,-0.961 ± 0.22
GUAAAGCAAUAUUACGUGUC,-1.85 ± 0.06,-1.14 ± 0.079
CGUUAGCAAUAUUACGAAGA,-2.24 ± 0.29,
UGACAGCAAUAUUACGGAGU,-4.14 ± 0.2,-2.79 ± 0.13
AUCUAGCAAUAUUACGAUAA,-2.1 ± 0.22,-1.1 ± 0.3
GUUCAGCAAUAUUACGCUGA,-2.16 ± 0.24,-2.43 ± 0.31
GGUGAGCAAUAUUACGGAGU,-3.25 ± 0.26,-1.9 ± 0.19
AUAUAGCAAUAUUACGACCG,-1.62 ± 0.22,0.433 ± 0.41
CCUAAGCAAUAUUACGUGGU,-4.74 ± 0.32,-3.13 ± 0.25
GUCCAGCAAUAUUACGUAUU,-0.819 ± 0.078,-0.174 ± 0.09
CUGGAGCAAUAUUACGUCGC,-2.03 ± 0.46,-2.57 ± 0.48
CCACAGCAAUAUUACGGGCA,-3.53 ± 0.15,-2.92 ± 0.15
ACGAAGCAAUAUUACGCCAA,-2.55 ± 0.31,-1.98 ± 0.23
UCCGAGCAAUAUUACGGAGG,-2.66 ± 0.16,-2.65 ± 0.24
CCUGAGCAAUAUUACGUCAU,-3.5 ± 0.15,-2.68 ± 0.18
